Laboratory results taken from paper PMC3954913 (Molecular microbiology, 2014).

Molecular target: T1, pallilysin (Tp0751_C24-P237) (Treponema pallidum, UniProt O83732 24-237)
T1 sequence (looked up): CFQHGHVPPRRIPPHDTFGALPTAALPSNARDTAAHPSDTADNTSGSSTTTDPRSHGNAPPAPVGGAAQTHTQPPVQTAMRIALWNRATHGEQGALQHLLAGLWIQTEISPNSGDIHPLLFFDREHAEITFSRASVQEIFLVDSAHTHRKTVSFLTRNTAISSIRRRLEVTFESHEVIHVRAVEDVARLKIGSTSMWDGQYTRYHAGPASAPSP
Experiment: dynamic light scattering

B1: recombinant Tp0750_G23-D223 (natural protein, UniProt O83731 23-223, looked up)
chain: GERTVPVDIFLMIDKSRSMQEPGKFSSLHRWVRDEFVSSMTIQGDWITVYQFYEKPEELITLTLRSEQDRDKIISVVDSIVPNGRYTDIGRALDTVWEIQEKRKDNNRHKVLLLVTDLEHDAPLTSKYRGKQRSFQSPYLVRARRVKHDNWYEITLDMAVHDRVAHTARELYRSIAAAHSKRPTPTPPAKESSPRYTPSLD
Does B1 bind?
Result: binds
